Results reported in the RNAGym collection of RNA variant scans (doi:10.1073/pnas.2313332121).

B1: TPR t1 (parent)
chain: GACCAAUCUGCCCUCAGAGCUCGAGAACAUCUUCGGAUGCAGAGGAGGCAGGCUUCGGUGGCGCGAUAGCGCCAACGUCCUCAACCUCCAAUGCAUCCCACCACAUGAUGAUGCCUGAAGAGCCUUGGUUUUUUG

Variants of: B1
Assay: polymerase ribozyme fitness, log enrichment relative to wild type (log ratio); higher = more active; in vitro selection for triplet polymerase activity
In short: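 Genotype fitness is the logarithm of its enrichment divided by wild-type enrichment, using inverse-variance-weighted averages of replicates. That logarithm is base 2. Enrichment was measured by Illumina sequencing of input and output libraries from one triplicate in vitro selection round, with frozen incubation at −7 °C, on PCR-built, transcribed mutant libraries of each subunit of a heterodimeric triplet polymerase ribozyme, retaining genotypes with ≥10 input reads and ≥1 read per output.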

Row | Variant | polymerase ribozyme fitness (log ratio)
1 | GACCAAUCUGCCCUCAGAGCUCGAGAACAUCUUCGGAUGCAGAGGAGACAGGCUUCGGUGGCGCGAUAGCGCCAACGACCUCAACCUCCAAUGCAUCUCACCACAUGAUGAUGCCUGAAGAGCCUUGGUUUUUUG | -1.75
2 | GACCAAUCUGCCCGCAGAGCUCGAGAACAUCUUCGGAUGCAGAGGAGGCAGGCUUCGGUGGCGCGAUAGCGCCAACGUCCUCAAGCUCCAAUGCCUCCCAGCACAUGAUGAUGCCUGAAGAGCCUUGGUUUUUUG | -6.61
3 | GACCAAUCUGACCUCAGAGCUCGAGAACAUCUUCGGAUGCAGAGGAGGCAGGCUUCGGUGGCGCGAUAGCGCCAACGUCCUGAACCUCCAAUGCAUCCCAACACAUGAUGAUGCCUGAAGCGCCUUGGUUUUUUG | -0.28
4 | GACCAAUCUGCCCUCAGAGCUCGAGAACAUCUUCGGAUGCAGAGGAGGCAGCCUUCGGUGGCGCGAUAGCGCCAACGUCCUCAACCUCCAAUGAAUCCCACCACAUGAUGAUGCCUGAAGAGCCUUGGUUUUUUG | -0.653
5 | GACCAAUCUGGCCUCAGAGCUCGAGAACAUCUUCGGAUGCAGAGGAAGCAGGCUUCGGUGGCGCGAUAGCGCCAACGUCCUCAACCUACAAUGCAUCCCACCACAUGAUGAUGCCUGAAGAGCCUUCGUUUUUUG | -2.42
6 | GACCAAUCUGCCCUCAGAGCUCGAGAACAUCUUCGGAUGCAGAGGAGGCAGGCUGUGGUGGCGCGAUAGCGCCAACGUCCUCAACCUCCAAUGCAUCCCACCACAUGAUGAUGCCUAAAGAGCCUUGGUUUUUUC | -2.53
7 | GACCAAUCUGCCCUCAAAGCUCGAGAACAUCUUCGGAUGCAGAGGAGGCAGGCUUCGGUGGCGCGAUAGCGCAAACGUCCUCAACCUCCAAUGCAUCCCACCACAUGAUGAUGCCUGAACAGCCUUGGUUUUUUA | -1.5
8 | GACCAAUCUGCCCUCAGAGCUCGAGAACAUCUUCGGAUGCAGAGGAGGCAGGCUUCGGUGGCGCGAUAGCGCCAACGUCCUGAACCUCCAAUGCAUUCCACCACAUGAUGAUGCCUGAAGAGCCUUGGUUUUUUG | -1.16
9 | GACCAAUCUGCCCUCAGAGCUCGAGAACAUCUUCGGAUGCAGAGGAGGCAGGCAUCGGUGGCGCGAUAGUGCCAACGUCCUCAACCUGUAAUGCAUCCCACCACAUGAUGAUGCAUGAAGAGCCUUGGUUUUUUG | -0.838
10 | GAGCAAUCUGCCCUCAGAGCUCGAGAACAUCUUCGGAUGGAGAGGAGGCAGGCUUCGGUGGCGCGAUAGCGCCAACGUCCUCAACCUCCAAUGCAUCCCACCACAUGAUGAUGCCUGAAGGGCCUUGGUGUUUUG | 0.237
11 | GACCAAUCAGCCCUCAGAGCUCGAGAACAUCUUCGGAUGCAGAGGAGGCAGGCUUCGGUGGCGCGAUAGCGCCAACGUCCUCAACCUCCAAUGCAUCCCACCACAUGAUGAUGCCUGAAGAGCUUUGGUUUUUUG | 1.21
12 | GACCAUUCUGCCCUCAGAGCUCGAGAACAUCUUCGGAUGCAGAGGAGGCAGGAUUCGGUGGAGCGAUAGCGCCAACGUCCUCAACCUCCAAUGCAUUCCACCACAUGAUGAUACCUGAAGAGCCUUGGUUUUUUG | -3.13
13 | GACCAAUCUGCCCUCAGAGCUCGAGAACAUCUUCCGAUGCAGAGGAGGCAGUCUUCGGUGGCGCGAUCGCGCCAACGUCCUCAACCUCCAAAGCAUCGCACCACAUGAUCAUGCCUUAAGAGCCUUGGUUUUUUG | -6.61
14 | GACCAAUCUGCCCUCAGAGCUCGAGAACAUCUUCGGAUGCAGAGGAGGUAGGCUUCGGUGGCGCGAUAGCGCCAACGUCCUCAACCUCCAAUGCAUCCCACCACAUGAUGAUGGCUGAAGAGCCUUGGUUUUUUG | -3.71
15 | GACCAAUCUGCCCUCAGAGCUCGAGAACAUCUUCGGAUGCAGAGGAGGCAGGCUUCGGUGGCGCGAUAGCGACAACGUCCUCAACCUCCAAUGCAUCCCACCACAUGAUGAUGCGUGAAGAGCCUUGGUUUUUUG | -2.29
16 | GACCUAUCUGCCCUCAGAACUCGAGAACAUCUUCGGAUGCAGAGGAGGCAGGCUUCGGUGGCGCGAUAGCGGCAACGUCCUCAACCUCCAAUGCAUCCCACCACAUGAUGAGGCCUGAAGAGCCUUGGUUUUUUG | -4.06
17 | GACCAAUCUGCCCUCAGUGCUCGAGAACAUCUUCGGAUGCAGAGGAGGCAGGCUUCGGUGGCGCGAUAUCGCCAACGUCCUCAACCUCCAAUGCAUCCCACCACAUGAUGAUGCGUGAAGAGCCUUGGUUUUUUG | -0.333
18 | GACCAAUCUGCCCUCAGAGCUCGAGAACAUCUUCGGAUGCAGAGGAGGCAGGUUUCGGUGGUGCGAUAGCGCCAACGUCCUCAACCUCCAAUGCCUCCCACCACAUGAUGAUGCCUGAAGAGCCUUGGUUUUUUG | -1.08
19 | GACUAAUCUGCACUCAGAGCUCGAGAACAUCUUCGGAUGCAGAGGAGGCAGGAUUUGGUGGCGCGAUAGCGCCAACGUCCUCAACCUCGAAUGCAUCCCACCACAUGAUGAUGCCUGAAGGGCCUUGGUUUUUUG | -1.89
20 | GACCAAUCUGCCCUCAGAGCUCGAGAACAUCUUCGGAUGCUGAGGAGGCAGGCUUCGGUGGCGCGAUAGCGCCAACGUCCUCAACCUCCAAUGCAUCCCACCACAUGAUAAUGCCUGAAGCACCUUGUUUUUUUG | -5.21
21 | GACCAAUCUGCCCUCAGAGCUCGAGAACAUCUUCGGAUGCAGAGGAGGCAGGCUUCGGUGGCGCGAUAGCGGCAACGUCCUCAACCUCCAAUGCAUCCCACCAAAUGAUGAUGCCUGAAGAGCCUUGGUUUUUUG | -1.71
